Literature values in PMC2830912.

Molecular target: Pol III alpha subunit (Escherichia coli) (UniProt P10443)
Sequence (P10443 whole entry): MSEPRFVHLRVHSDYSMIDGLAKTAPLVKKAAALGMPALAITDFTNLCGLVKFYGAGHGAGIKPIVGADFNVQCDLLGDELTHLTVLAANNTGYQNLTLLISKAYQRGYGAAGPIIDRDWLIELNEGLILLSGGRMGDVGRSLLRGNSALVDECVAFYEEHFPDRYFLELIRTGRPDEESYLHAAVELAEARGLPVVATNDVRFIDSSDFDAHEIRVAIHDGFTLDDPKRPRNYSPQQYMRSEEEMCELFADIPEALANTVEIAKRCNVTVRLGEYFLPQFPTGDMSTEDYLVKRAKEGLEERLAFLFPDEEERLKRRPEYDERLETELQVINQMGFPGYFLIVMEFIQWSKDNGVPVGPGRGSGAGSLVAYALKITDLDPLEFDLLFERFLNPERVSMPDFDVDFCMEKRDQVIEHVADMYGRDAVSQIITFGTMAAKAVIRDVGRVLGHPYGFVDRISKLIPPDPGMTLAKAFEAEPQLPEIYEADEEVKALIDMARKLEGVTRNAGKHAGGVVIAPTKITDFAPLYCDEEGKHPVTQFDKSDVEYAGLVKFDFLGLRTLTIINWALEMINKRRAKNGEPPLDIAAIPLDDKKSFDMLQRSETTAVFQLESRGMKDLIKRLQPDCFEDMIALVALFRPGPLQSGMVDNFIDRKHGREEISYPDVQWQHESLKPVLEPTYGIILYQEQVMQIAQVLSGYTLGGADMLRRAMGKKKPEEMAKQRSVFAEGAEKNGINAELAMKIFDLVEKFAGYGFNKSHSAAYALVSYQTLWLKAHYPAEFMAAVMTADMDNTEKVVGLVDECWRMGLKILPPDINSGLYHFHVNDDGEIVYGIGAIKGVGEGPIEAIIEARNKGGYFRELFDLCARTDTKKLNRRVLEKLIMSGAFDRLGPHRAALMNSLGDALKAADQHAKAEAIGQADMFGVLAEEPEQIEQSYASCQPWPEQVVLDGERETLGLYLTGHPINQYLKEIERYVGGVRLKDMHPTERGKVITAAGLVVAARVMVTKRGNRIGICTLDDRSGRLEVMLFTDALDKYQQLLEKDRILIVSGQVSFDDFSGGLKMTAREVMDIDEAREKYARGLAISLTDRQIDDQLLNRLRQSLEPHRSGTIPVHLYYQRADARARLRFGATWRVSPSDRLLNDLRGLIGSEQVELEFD

DnaX tau subunit, sequence (P06710 2-643): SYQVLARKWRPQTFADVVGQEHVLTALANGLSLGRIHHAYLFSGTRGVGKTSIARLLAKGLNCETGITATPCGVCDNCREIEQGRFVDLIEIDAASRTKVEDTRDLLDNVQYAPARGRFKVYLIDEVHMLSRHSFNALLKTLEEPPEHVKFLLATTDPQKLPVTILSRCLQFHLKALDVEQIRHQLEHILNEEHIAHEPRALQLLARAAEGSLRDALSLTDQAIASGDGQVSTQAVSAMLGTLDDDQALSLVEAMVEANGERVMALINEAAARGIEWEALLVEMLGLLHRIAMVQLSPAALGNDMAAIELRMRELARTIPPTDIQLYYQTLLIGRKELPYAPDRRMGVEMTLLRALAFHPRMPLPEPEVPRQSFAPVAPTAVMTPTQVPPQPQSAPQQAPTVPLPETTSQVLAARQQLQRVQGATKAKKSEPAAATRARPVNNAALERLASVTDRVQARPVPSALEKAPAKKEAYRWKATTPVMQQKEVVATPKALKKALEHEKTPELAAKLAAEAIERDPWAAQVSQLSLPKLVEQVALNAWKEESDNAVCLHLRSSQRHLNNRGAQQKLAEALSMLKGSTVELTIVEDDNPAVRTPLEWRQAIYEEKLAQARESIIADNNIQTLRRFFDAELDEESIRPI

Kd: 0.07 nM
Substance: DnaX tau subunit (from UniProt P06710)
